Changes are numbered by the printed parent chain.
B1: MxiH L32C (natural protein)
chain: MSVTVPNDDWTLSSLSETFDDGTQTLQGELTCALDKLAKNPSNPQLLAEYQSKLSEYTLYRNAQSNTVKVIKDVDAAIIQNFR
notes: MxiH, needle subunit of the T3SS, Shigella flexneri, with leucine 32 changed to cysteine; cloned into pACT3 via NdeI and HindIII; Printed mass of the unlabelled subunit is 9123.5 Da; source: S. flexneri, expressed from pACT3 with 200 μM IPTG; needles purified
B2: MxiH, needle subunit of the Shigella flexneri type III secretion system (wild type, serotype 5) (natural protein)
chain: B1 chain with C32L
modifications: uniformly 13C,15N labelled
notes: MxiH, needle subunit of the T3SS, Shigella flexneri serotype 5; expressed from pACT3mxiH; arranged as a helical polymer (needle); Helical polymer; also called WT MxiH; native MxiH needles; source: S. flexneri ΔmxiH (pACT3mxiH), 200 μM IPTG, M9-type minimal medium; in vivo assembled needles shaved from the bacterial surface and purified
B3: MxiH V68C (natural protein)
chain: B1 chain with C32L, V68C
notes: MxiH, needle subunit of the T3SS, Shigella flexneri, with valine 68 changed to cysteine; gene synthesized and cloned into pACT3 via NdeI and HindIII; Printed mass of the unlabelled subunit is 9137.5 Da; source: S. flexneri, expressed from pACT3 with 200 μM IPTG; needles purified

Assays:
[1] = biological target: the molecule itself; assay: negative-stain electron microscopy of purified needles; purified needle preparations, about 0.1 μg/ml, on carbon-coated grids, stained with 1% phosphotungstic acid pH 7; self-association of the subunit into the needle polymer
[2] = biological target: the molecule itself; assay: solid-state NMR; 5-7 mg of uniformly 13C,15N labelled natively grown needles packed in a 1.9 mm rotor; 20.0 T, 18 kHz MAS; self-association of the subunit into the needle polymer

| Protein | binding result [1] | binding result [2] |
| --- | --- | --- |
| B1 | binds |  |
| B2 |  | binds |
| B3 | binds |  |
